Literature values, collected in article PMC6753945.

Target: CD28 (Homo sapiens) (UniProt P10747)

In the case of CD80 (from UniProt P33681), the Kd is given as 200 nM.
